Measured values published in the DeepSol protein solubility set.

Test: soluble on expression in E. coli; label from the status in PepcDB or PDB records

| Sequence | soluble on expression in E. coli |
| --- | --- |
| MEEMMMNDPSAMVIYEEEVTTAPNLPCSLIQQRSWDEEKPIGYELTNTKCYKTPNGVQKTATIQREQLSTSKDFGEQQIVEMDGEFSIEGTDMHAIPCTSSSMQPSTSSNPSSGEHQPVPLRRMAIKIGQRVLRFKVISAEEAPEAPLDTQDSWINDPKPVTTPKALAGLYRCTNCKTYFGNKEVYQRHIQEVHGDARPFRCFNCGMRFANKTSMTHHLKDHSLLKPMFSCDYCPRIFSKLESKTRHHKMHFTRSTCQTCMRFFTTEDALRHHQSTAHPATFDSGPPPEDLLPNGKSARYSCSYCNLRFHFKKDMLVHERIHTGEKPYSCGYCMKSFAQSQALTAHIRTHTKELPYGCGKCDKRFRDNSCLRKHELAAHTDEPIVRPISVAYSNQVQKQMQRQRENRRKQELLIAERHPYRI | not soluble |
| MGSDKIHHHHHHMAKQLPDIGDYKYGFKDKDVSIFRAGRGLTKEIVEEISRMKEEPQWMLDFRLKSLDKFYEMPMPQWGGDLNDLDFDEITYYVKPSEKSEKSWDEVPDEIKATFDKLGIPEAEQKYLAGVSAQYESEVVYHNMKEDLEALGIVFKDTDSALKENEDIFREHFGKVIPPTDNKFAALNSAVWSGGSFIYVPKGVKVDTPLQAYFRINSENMGQFERTLIIVDEGAHVHYVEGCTAPVYTTNSLHSAVVEIIIKKDAYCRYTTIQNWANNVYNLVTKRAVCEENATMEWIDGNIGSKLTMKYPAVILKGEGARGLTLSIAIAGKGQHQDAGAKMIHLAPNTSSTIVSKSIAKHGGKVTYRGIVHFGPKAKNSRSNIECDTLIMDNQSTSDTIPYNEIKNDYVSLEHEAKVSKVSEEQLFYLMSRGISEQEATEMIVMGFIEPFTRELPMEYAVEMNRLIKFEMEGSIG | not soluble |
| MADIPLSGKPRTQVLRWQRQNWVAGLRWEEKQKSVRRAPVQRRGVLNVVLTVKQGKSRLTALGQIEAGWRHQKLYSLAALFSQQCTPNGYGVYQLDDGRQVFLATVKGMPSPMADVIGTPDQIIRARELFLSFNPAPEDGWTIPSSPEFPLSWNTLVGQVSSAQLRFARVAGVSNPLRPYGAGVLSVAALLGGAVWWSRLPEPPVAPVVQELPAPVQDVFKKTPEPVYLPHPWADMPVARHFLNRCQRWRAAVPVSLDRWRLERIRCSAEGLETVYQRQPGGTAAGFAERVKQVFKRTPVFNLVSGGNEGVVFIPWAKFTLQDETAPDAGTQLMQAVSWFQSRQVSFSLSLEHHHHHH | not soluble |
| MGSDKIHHHHHHMQQVISDIMTFRGSHFELGVKTGKWLQQTPLLKNREKEWKKRVPRFDIDVNETYQIFQTYAPQIWEELMGLQSILKMPTRQIILNFGHYRFTDLKESGCTVFQGKDFMVRNYDYHPATYDGRYLLYQPTDSGLAQIGPVSRVTGRMDGMNESGLTMGYNFMHRKKPANGFVCYMIGRLILENCRNVTEAIQLLKEIPHRSSFSYILMDKSLNHAIVEVTPRSIDVRYDNICTNHFEILTHENRNYTKESKERLARTISQTNDNLDMTTAFKLFNNPQYEIYSKLFKSWSGTIHTSMYQPETLTAYFTLGENAPPEIIDFKSWLDGQDLNITHFTGNIDTDLTFANK | not soluble |
| MHRVEETRRIAPEEGNPVLISQIKDASGNITVAVREEGGQARAVKGAASVYALAMEAANGGKSLADVVSAHGLGDAVDLDKAYAEGRFLPPITHPDPAHLHLTGTGLTHLGSAATRDSMHKKTTEAAEESLTDSMKMFRMGLENGKPKAGEKGVQPEWFYKGNGHVAAAPGAALTSPSFALDGGEEPEMAGIYVISDKGEAVRIGFAVSNEFSDHVTERVNYLYLAHSKLRPASFGPEIRVGAAPSDIRGTSRIRRGDKVIFEKPFVSGEDNMSHTFANLEYHHFKYGLFRAPGDVHVHMFGTATLSFAEGIKPEAGDVFEIEAAGFGLPLKNPLAVDSEEEIVVRQI | not soluble |
| MIVVLKMGADKNEVKKLIEAIGREGVEVNPIDGTELTVLGLVGDTSKIDAKRIEANKVVEKVMHVVEPFKKANRKFHPEPSIINVNGMEIGSKKIAMIAGPCSVETEDQIVSIAKDVKKSGAGFLRGGAFKPRTSPYAFQGLKYDGLDLLKKAKEKTGLPIVTEIMSTQDIDIFEENVDVIQVGARNMQNFDLLKELGKTNKTILLKRGLSATIEEWLMSAEYIMAGGNENVVLCERGIRTFETYTRNTLDLSAILAVKKLSHLPVIVDPSHAAGKSWMVDSLSKAAIAVGADGLIIEVHNDPAHALCDGKQSIKPNEYDELISELKTIASAVGREI | not soluble |
| MGHHHHHHSHMPESYWEKVSGKNIPSSLDLYPIIHNYLQEDDEILDIGCGSGKISLELASLGYSVTGIDINSEAIRLAETAARSPGLNQKTGGKAEFKVENASSLSFHDSSFDFAVMQAFLTSVPDPKERSRIIKEVFRVLKPGAYLYLVEFGQNWHLKLYRKRYLHDFPITKEEGSFLARDPETGETEFIAHHFTEKELVFLLTDCRFEIDYFRVKELETRTGNKILGFVIIAQKL | not soluble |
| MSLEPCWKVGFAETSGCLPKLCIAQLRLPAFCNSEGLFGLFDGETGNGVPNLLVKAIPKILLEERTVKETANDYMKYTLLSAHRELKQRGQQEAVNVTLCHIARSRLPTEAMSYLPQTVASGRKFILRVATVGESSAVLIKHNRCVLLNKGSPARKLGLSANFPVTVPDPEVQEVVLTDADEYLVLGNRKLWEVITMETVAEEIRKEENILLAAKRVQDIAQSYGAEENLSVMIVRFNEGHHHHHH | soluble |
| MGSDKIHHHHHHMDLENKFSYHFLEGLTLTEDGILTQGNEQVYIPQKELGVLIVLLESAGHVVLKDMIIESVWKNIIVSDESLTRCIYSLRCIFEKIGYDRCIETIYRKGYRFSGQVFKTKINEDNTSDYSIAIFPFTTSLNTLDPLILNQELVQIISNKKIDGLYTYPMAATNFCNDHISQNSFLSRFKPDYFVTGRINQNNAVNTLYIELIDAKNLFLIASNHLPVDELHNTSQFIIDNILQTVHKPERSVRLAKQDQGYKNHYLSDEMLAGKKELYDFTPESIYRAMTIFDRLQNKSDIQTLKTECYCLLAECHMSLALHGKSELELAAQKALELLDYVSDITTVDGKILAIMGLITGLSGQAKVSHILFEQAKIHSTDIASLYYYRALVHFHNEKIEEARICIDKSLQLEPRRRKAVVIKECVDMYVPNPLKNNIKLYYKETESESHRVIIDNILKLKQLTRICMR | not soluble |
| MMELHRRVLEGDEAALKTLVSAAPNIGEVARDVVEHLSPGSYREGGPCAVCGGRLESVIASAVEEGYRLLRAYDIERFVVGVRLERGVAMAEEEVKLAAGAGYGESIKAEIRREVGKLLVSRGGVTVDFDSPEATLMVEFPGGGVDIQVNSLLYKARYWKLARNISQAYWPTPEGPRYFSVEQALWPVLKLTGGERLVVHAAGREDVDARMLGSGRPMIVEVKSPRRRRIPLEELEAAANAGGKGLVRFRFETAAKRAEVALYKEETARVRKVYRALVAVEGGVSEVDVEGLRRALEGAVIMQRTPSRVLHRRPDILRRRRLYSLDCSPLEGAPLMECILEAEGGLYIKELVSGDGGRTRPSFAEVLGREAVCIELDVVWVEHEAPAAPGLEHHHHHH | soluble |
| MGSDKIHHHHHHMNRKVAIVTGTNSNLGLNIVFRLIETEDTNVRLTIVVTSRTLPRVQEVINQIKDFYNKSGRVEDLEIDFDYLLVDFTNMVSVLNAYYDINKKYRAINYLFVNAAQGIFDGIDWIGAVKEVFTNPLEAVTNPTYKIQLVGVKSKDDMGLIFQANVFGPYYFISKILPQLTRGKAYIVWISSIMSDPKYLSLNDIELLKTNASYEGSKRLVDLLHLATYKDLKKLGINQYVVQPGIFTSHSFSEYLNFFTYFGMLCLFYLARLLGSPWHNIDGYKAANAPVYVTRLANPNFEKQDVKYGSATSRDGMPYIKTQEIDPTGMSDVFAYIQKKKLEWDEKLKDQIVETRTPI | not soluble |
| MRGSGQFRVIGPGHPIRALVGDEAELPCRISPGKNATGMEVGWYRSPFSRVVHLYRNGKDQDAEQAPEYRGRTELLKESIGEGKVALRIQNVRFSDEGGYTCFFRDAEYQEEAAVELKVEDPFYWINPGRSRSHHHHHH | soluble |
| LKQLLALDKNIERMECFDISHTQGEATVASCVVFDTEGPRPSEYRRFNIEGITPGDDYAAMEQAVTRRFKRLIDVQLLPDVLIIDGGKGQVSIVKRVLTSLGVEDITLLGVSKGPSRKAGWEKLILVNENREFVLPEDSKALHLLQHIRDEAHRFAI | not soluble |
| MSLTHPDFTILYVDNPPASTQFYKALLGVDPVESSPTFSLFVLANGMKLGLWSRHTVEPKASVTGGGGELAFRVENDAQVDETFAGWKASGVAMLQQPAKMEFGYTFTAADPDSHRLRVYAFAGEGHHHHHH | not soluble |
| KPNWCPGCGDFSVQAAIQRAAANVGLEPDQLAVISGIGCSGRISGYINAYGFHGVHGRVLPIAQGVKMANRDVTVIASGGDGDGFAIGMGHTVHAIRRNINITYIVMDNQIYGLTKGQTSPRSDVGFKTKSTPSGSVESALNVMEMALTAGATFVAQSFSSDLKELTALIEKGINHNGFSLINVFSPCVTFNKVNTYDWFKENLTKLSDLEGYDPQNRMVAMQTLMEHNGLVTGLIYQNDKQPSYQDLIAGYDEKPLADQDLTIDEGKFKELVGEF | not soluble |
| MGSDKIHHHHHHMILKRISILNYKNLEQVEIGFSAKLNCFFGQNGMGKTNLLDAVYFLSFCKSSGNPIDSQNIRHEQDFFVIQGFYEAEDGTPEEIYCGMKRRSKKQFKRNKKEYSRFSDHIGFLPLVMVSPADSELIAGGSDERRRFMDVVISQYDKEYLEALIRYNKALAQRNTLLKSEFPVEEELFLVWEEMMAQAGEIVFRKREAFIEEFIPIFQSFYSFISQDKEQVGLSYDSHARDASLLEVLKQSRERDKIMGFSLRGIHKDELNMLLGDFPIKKEGSQGQNKTYLVALKLAQFDFLKRTGQTVPLLLLDDIFDKLDASRVEQIVKLVAGDNFGQIFITDTNREHLDRILQKVGSDYKVFRVDQGVINEMGAEQ | not soluble |
| MNLRTQKFHMYFKQWIELYKEGAVRPVTYQKYQMSHKHLVTLAPDLHMDELKRRTYQELINEFAANHEKQTTLDFHHHLKAAILDALDEGILEQDPTRKVLEHHHHHH | not soluble |
| NILKIRCAPVTWPIGMGKNFKGVYHILNDEIYLFEAGGERLPHEFDIIKGIDNPELEQRFPLEIQQLRDEIELVQAASNEFNLDEFLAGELTPVFFGSAINNFGIQEILNSLIDWAPAPKPRDATVRMVEPDEPKFSGFIFKIQANMDPKHRDRIAFLRVCSGKFERGMKMKHLRINREIAASSVVTFMSHDRELVEEAYAGDIIGIPNHGNIQIGDSFSEGEQLAFTGIPFFAPELFRSVRIKNPLKIKQLQKGLQQLGEEGAVQVFKPMSGADLILGAVGVLQFEVVTSRLANEYGVEAVFDSASIWSARWVSCDDKKKLAEFEKANAGNLAIDAGGNLAYLAPNRVNLGLTQERWPDIVFHETREHSVKL | not soluble |
| MGSDKIHHHHHHMAHPLSRIIDQLKREPSRTGSIVITVFGDAIVPRGGSVWLGTLLEFFESLDIDSGVVRTAMSRLAADGWLTREKVGRNSFYRLADKGHQTFEAATRHIYDPPPSDWTGRFELLLINGEDRDASREALRNAGFGSPLPGVWVAPSGVPVPDEAAGAIRLEVSAEDDSGRRLLSASWPLDRTADAYLKFMKTFEPLRTAIGRGTTLSDADAFTARILLIHHYRRVVLRDPLLPESLLPADWPGRAARELCGEIYRALLAPSEQWLDGHGTNEKGPLPAARKLLERRFGA | not soluble |
| AHHHHHHGSKVEKGDVIRLHYTGKVKETGEIFDTTYEDVAKEARIYNPNGIYGPVPIAVGAGHVLPGLDKRLIGLEVKKKYVIEVPPEEGFGLRDPGKIKIIPLGKFRKSGIIPYPGLEIEVETENGRKMRGRVLTVSGGRVRVDFNHPLAGKTLVYEVEVVEKIEDPIEKIKALIELRLPMIDKDKVIIEISEKDVKLNFKDVDIDPKTLILGEILLESDLKFIGYEKVEFEPTIEELLKPKSAEEQESPNEEQQEESESKAEES | not soluble |
